US8076087B2, “Galectin sequences and compositions and methods utilizing same for treating or diagnosing arthritis and other chronic inflammatory diseases” (Medical Research Fund of Tel Aviv Souraskv Medical Center, priority 2002, dated 2011)

Columns and labels:
[1] = system: IL-1ra; assay: IL-1ra levels in media of LPS-supplemented human synovial tissue / cell cultures, sandwich enzyme immunoassay; type: cell-based; conditions: LPS 3 μg/ml, 50-2000 ng/ml, 48 hours
Protocol: Specimen Selection and Culture Conditions: Synovial tissues were obtained from patients undergoing total knee or hip replacement for osteoarthritis (OA). Within 2 hours of removal, synovial tissues were cut into small pieces, of a few millimeters in diameter. Synovial fibroblasts were cultured in 2 ml RPMI 1640 supplemented with 2 mM L-glutamine, 100 U/ml penicillin and 100 μg/ml streptomycin sulphate (Biological Industries).
Inflammatory cells and PBLs derived from joints of rheumatoid arthritic (RA) patients were cultured individually [RPMI-1640 (Sigma, Israel)]. The murine fibroblast line, NIH 3T3, was used as a control. The recombinant galectin-8 peptide (r-galectin-8) was added to the culture medium of the synovial fibroblasts at a concentration of 0.125 μM, 0.25 μM, 0.5 μM and 1 μM) together with lipopolysaccharide (LPS, 3 μg/ml). The recombinant galectin-8 peptide variants (r-galectin-8 variant 1 and r-galectin-8 variant 2) were added to all the culture mediums in the following concentrations: 50 ng/ml, 125 ng/ml, 250 ng/ml, 500 ng/ml, 750 ng/ml, 1 μg/ml and 2 μg/ml together with lipopolysaccharide (LPS, 3 μg/ml). Following 48 hours of incubation (37° C., 5% CO2), the measurement of IL-1β, TNF-α and IL-1ra production was performed in supernatants by quantitative sandwich enzyme immunoassay technique (R&D Systems, Inc., USA). Detection limits were 1 pg/ml to 14 pg/ml. IL-1ra production was tested with and without the addition of lipopolysaccharide (LPS, 3 μg/ml) to the culture media.

[2] = system: collagen induced arthritis (CIA); assay: Histopathological examination of rear footpad joints of CIA mice; type: in vivo, DBA/1 mice; conditions: compared with joints of arthritic mice treated with PBS or PBS+30% glycerol
Source text: Histopathological examination: The rear footpad joints of 5 arthritic mice that received PBS or PBS+30% glycerol (group 1, negative control), 2 arthritic mice that received anti-mouse-TNFα mAb (group 2, positive control), 3 arthritic mice that received human galectin-8 protein (group 3, positive control), 3 normal healthy mice and 5 arthritic mice that received human galectin-8 variant 1 (group 4) were sent to an accredited pathological laboratory (Patho-Lab, Kiryat Weitzmann, Rehovot) for histopathological examination.
Quantification of the arthritic changes was made subjectively based on degree of articular destruction and following evaluation of the different parameters often observed in arthritic joints. The definition of the parameters quantitated were: • 1. Cellularity within the joint: Cells present couldn't be identified due to loss of cellular morphology (decal), therefore red blood cells and leukocytes were all graded together. • 2. Presence of fibrin in the joint: Fibrin was present in apparently more acute lesions, but the amount of fibrin was proportionally small. • 3. Cartilage loss: Cartilage surfaces were evaluated in the section, slight changes of irregularity of the surface were noted. • 4. […] Synovial cell loss: Identification of synovial cells was difficult due to poor cellular morphology, but in general synovial surfaces were evaluated for integrity. • 6. […]

B1: galectin-8 variant 1: recombinant galectin-8 variant 1 polypeptide, SEQ ID NO: 6, isoform found in synovial fluid cells of arthritic patients (protein)
chain: MMLSLNNLQNIIYNPDLQSTQASSLELTEISRENVPKSGTPQLPSNRGGDISKIAPRTVYTKSKEARQSHFDLHENTTYELCVKSLPFAARLNTPMGPGRTVVVKGEVNANAKSFNVDLLAGKSKDIALHLNPRLNIKAFVRNSFLQESWGEEERNITSFPFSPGMYFEMIIYCDVREFKVAVNGVHSLEYKHRFKELSSIDTLEINGDIHLLEVRSW
B1 was tested, and the “IL-1ra levels in media” value ([1]; PBLs of RA patients) was “significantly and dose-dependently increased”, the “IL-1ra levels in media” value ([1]; PBLs of RA patients, listed as galectin-8 var. 1) was “decrease” and the “IL-1ra levels in media” value ([1]; human fibroblasts from OA patients) was “significantly and dose-dependently increased”. For the same molecule, the “IL-1ra levels in media” value ([1]; human fibroblasts from OA patients, listed as galectin-8 var. 1) was “decrease”, the “IL-1ra levels in media” value ([1]; synovial fluid cells (SFCs)) was “significantly and dose-dependently increased” and the “IL-1ra levels in media” value ([1]; synovial fluid cells (SFCs), listed as galectin-8 var. 1) was “decrease”. The “recovery of joints (histopathology)” value [2] was “recovered, most of them completely and some at least partly”.
